# Reference: US20230372419A1, “LIVE BIOTHERAPEUTICS SECRETING SYNTHETIC BACTERIOPHAGES IN THE TREATMENT OF CANCER” (TATUM BIOSCIENCE INC., priority 2020, published 2023)
# T1: CD47 on the surface of A20 mouse lymphoma cells (mouse (A20 mouse lymphoma cells), UniProt Q61735 19-303)
# T1 construct: whole, on cells; also called CD47 receptor; CD47 immune checkpoint
# T1 sequence (looked up): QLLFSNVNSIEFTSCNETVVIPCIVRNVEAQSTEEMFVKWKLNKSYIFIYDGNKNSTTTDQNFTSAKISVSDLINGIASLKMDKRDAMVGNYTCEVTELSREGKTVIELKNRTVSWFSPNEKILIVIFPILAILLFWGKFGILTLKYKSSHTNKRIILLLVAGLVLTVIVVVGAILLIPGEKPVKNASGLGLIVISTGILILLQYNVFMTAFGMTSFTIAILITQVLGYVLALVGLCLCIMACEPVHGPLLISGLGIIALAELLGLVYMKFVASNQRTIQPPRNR
# B1: synthetic bacteriophage displaying an anti-CD47 nanobody on pIII (MG1655+pTAT004+pTAT003) (other, not shown: small tags and cut ends; large carriers)
# chain: QVQLVESGGGLVEPGGSLRLSCAASGIIFKINDMGWYRQAPGKRREWVAASTGGDEAIYRDSVKDRFTISRDAKNSVFLQMNSLKPEDTAVYYCTAVISTDRDGTEWRRYWGQGTQVTVSSGGLPETGG
# notes: also called pTAT003 derived bacteriophages; nbCD47-pIII bacteriophages
# B2: purified anti-PD-L1 nanobody with hexahistidine and HA tags fused in C-terminal (VHH)
# VHH: QVQLVETGGGLVQPGGSLRLSCTASGFTFSMHAMTWYRQAPGKQRELVAVITSHGDRANYTDSVRGRFTISRDNTKNMVYLQMNSLKPEDTAVYYCNVPRYDSWGQGTQVTVSS
# notes: Expressed from the pTrcHis vector in E. coli BL21 (DE3), purified on Ni-NTA; also called nbPDL1 (pTAT034); not shown: hexahistidine and HA tags fused in C-terminal
# B3: synthetic bacteriophage displaying an anti-PD-L1 nanobody on pIII (MG1655+pTAT004+pTAT020) (other)
# chain: QVQLVETGGGLVQPGGSLRLSCTASGFTFSMHAMTWYRQAPGKQRELVAVITSHGDRANYTDSVRGRFTISRDNTKNMVYLQMNSLKPEDTAVYYCNVPRYDSWGQGTQVTVSSGGLPETGG
# notes: Whole phage particle; also called anti-PD-L1 synthetic bacteriophage; not shown: HA-6His dual tag linker; C-terminal fragment of coat protein pIII (gpIII-C) of bacteriophage M13
# B4: synthetic bacteriophage displaying the anti-PD-L1 nanobody inserted between the binding domain and the bacteriophage anchor domain of pIII (MG1655+pTAT033) (other)
# chain: B3 chain
# notes: Single-vector system derived from M13mp18-Kan; whole phage particle, remained infectious; also called anti-PD-L1 nanobody inserted in pIII; not shown: N-terminal part of pIII (D1/D2 domains) of bacteriophage M13; C-terminal part of pIII (gpIII-C, transmembrane region / anchor domain) of bacteriophage M13
# B5: purified anti-PD-L1 nanobody: purified anti-PD-L1 nanobody with hexahistidine and HA tags, expressed in BL21 (DE3) (protein)
# VHH: B3 chain
# modifications: left off: small tags and cut ends
# B6: synthetic bacteriophage displaying the anti-PD-L1 nanobody at the N-terminal end of pIII (MG1655+pTAT032) (other)
# chain: B3 chain
# notes: Single-vector system derived from M13mp18-Kan; also called pTAT32; anti-PD-L1 nanobody on pIII; not shown: C-terminal fragment of coat protein pIII (gpIII-C) of bacteriophage M13
# B7: synthetic bacteriophage displaying an anti-CTLA-4 anticalin on pIII (MG1655+pTAT004+pTAT030) (other)
# chain: QDSTSDLIPAPPLSKVPLQQNFQDNQFHGKWYVVGLAGNRILRDDQHPMNMYATIYELKEDKSYNVTSVISSHKKCEYTIATFVPGSQPGEFTLGNIKSYGDKTSYLVRVVSTDYNQYAMVFFKLAEDNAEFFAITIYGRTKELASELKENFIRFSKSLGLPENHIVFPVPIDQCIDG
# notes: Whole phage particle; not shown: HA-6His dual tag linker; C-terminal fragment of coat protein pIII (gpIII-C) of bacteriophage M13
# Tests used:
# [1] = biological target: T1, CD47 on the surface of A20 mouse …; assay: pull-down assay on A20 cells
# [2] = biological target: T2, PD-L1 on the surface of A20 cells (mouse (A20 mouse lymphoma cells), UniProt Q9EP73 19-290); assay: ELISA on fixed A20 cells, detection with anti-HA-HRP
# T2 construct: whole, on cells; also called PD-L1 receptor; CD274
# [3] = biological target: T2, PD-L1 on the surface of A20 cells; assay: flow cytometry on A20 cells, competition with anti-PD-L1-PE (10F.9G2)
# PD-L1 on A20 cells = biological target: T3, PD-L1 on A20 cells (Mus musculus, UniProt Q9EP73); assay: Binding to PD-L1 on fixed A20 cells by ELISA; settings: nanobody 1 nM to 10 μM, detection anti-HA-HRP
# T3 construct: host or cells: A20 mouse B lymphoma cells (live for flow cytometry, formalin-fixed for ELISA)
# Description: Assessment of anti-PD-L1 displaying bacteriophages binding activity on A20 cells by EUSA. A 96 wells plate was prepared by adding in each well 100 μL of PBS comprising 1×10^5 A20 cells. The plate was then incubated 30 min to allow sedimentation of the cells. The plate was then tilted and the PBS was carefully removed. To fix the cells to the plate, 100 μL of 10% formalin was then added, and the plate was incubated for 10 min. The fixed cells were then washed gently with 100 μL of PBS and then blocked by adding 200 μL of PBS (1% BSA, 3% milk), followed a 30 min incubation periode. The blocking buffer was removed and then 100 μL of bacteriophage PEG preparation was added to the wells. The plate was incubated 1 h and then washed three times with 200 μL of PBS. To detect the bacteriophages, 100 μL of anti-HA-HRP (Cell Signaling) 1/500 diluted in PBS (3% milk, 1% BSA) was added and the plate was incubated for 1 h. […] Then, 100 μL from each well was transferred to a new plate and optical density was measured at 450 nm.
# Assessment of anti-PD-L1 nanobody binding activity on A20 cells by EISA. […] Then, 100 μL from each well was transferred to a new plate and optical density was measured at 450 nm. […] Tumor sizes were then monitored twice a week using a precise caliper until tumors exceed 1500 mm^3 or until day 24 after the first injection. […]
# [4] = biological target: T4, mice CTLA-4 recombinant protein (R&D systems) (mice, UniProt P09793 36-161); assay: ELISA on coated mouse CTLA-4, detection with anti-pVIII-HRP
# T4 construct: Coated on ELISA plates at 10 µg/mL; also called recombinant CTLA-4 protein; CTLA-4 immune checkpoint
# T2 sequence (Q9EP73 19-290): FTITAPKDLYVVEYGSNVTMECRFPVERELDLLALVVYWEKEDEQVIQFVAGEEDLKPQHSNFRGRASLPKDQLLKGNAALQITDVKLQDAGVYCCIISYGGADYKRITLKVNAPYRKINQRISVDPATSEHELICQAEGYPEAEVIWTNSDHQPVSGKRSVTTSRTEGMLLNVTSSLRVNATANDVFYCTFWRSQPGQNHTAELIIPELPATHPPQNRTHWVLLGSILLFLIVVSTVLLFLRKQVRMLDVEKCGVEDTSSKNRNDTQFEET
# T3 sequence (Q9EP73 19-290): as above
molecule,measurement,setting,value
B1,binding result,[1],binds
B2,binding result,[2],binds
B3,binding result,[3],binds
B4,binding result,[3],binds
B5,purified nanobody binding activity on A20 cells (ELISA),PD-L1 on A20 cells,confirmed its binding activity on A20 cells
B6,binding result,[3],binds
B7,binding result,[4],binds
